{"source": "paper PMC9204724", "about": "(iScience, 2022)", "key": {"[1]": {"target": "chicken skeletal muscle α-actin, filamentous (chicken) (UniProt P68139)", "test": "stopped-flow kinetics"}, "[2]": {"target": "α-actin–Tpm1.7 cofilament (chicken | human) (UniProt P68139)", "test": "stopped-flow kinetics"}, "[3]": {"target": "α-actin–Tpm3.1 cofilament (chicken | human) (UniProt P68139)", "test": "stopped-flow kinetics"}, "[4]": {"target": "T1, acto-Myo1C^0-ΔTH1 (no Tpm) (Homo sapiens, UniProt O00159)", "T1 sequence (O00159 36-891, stated change not applied)": "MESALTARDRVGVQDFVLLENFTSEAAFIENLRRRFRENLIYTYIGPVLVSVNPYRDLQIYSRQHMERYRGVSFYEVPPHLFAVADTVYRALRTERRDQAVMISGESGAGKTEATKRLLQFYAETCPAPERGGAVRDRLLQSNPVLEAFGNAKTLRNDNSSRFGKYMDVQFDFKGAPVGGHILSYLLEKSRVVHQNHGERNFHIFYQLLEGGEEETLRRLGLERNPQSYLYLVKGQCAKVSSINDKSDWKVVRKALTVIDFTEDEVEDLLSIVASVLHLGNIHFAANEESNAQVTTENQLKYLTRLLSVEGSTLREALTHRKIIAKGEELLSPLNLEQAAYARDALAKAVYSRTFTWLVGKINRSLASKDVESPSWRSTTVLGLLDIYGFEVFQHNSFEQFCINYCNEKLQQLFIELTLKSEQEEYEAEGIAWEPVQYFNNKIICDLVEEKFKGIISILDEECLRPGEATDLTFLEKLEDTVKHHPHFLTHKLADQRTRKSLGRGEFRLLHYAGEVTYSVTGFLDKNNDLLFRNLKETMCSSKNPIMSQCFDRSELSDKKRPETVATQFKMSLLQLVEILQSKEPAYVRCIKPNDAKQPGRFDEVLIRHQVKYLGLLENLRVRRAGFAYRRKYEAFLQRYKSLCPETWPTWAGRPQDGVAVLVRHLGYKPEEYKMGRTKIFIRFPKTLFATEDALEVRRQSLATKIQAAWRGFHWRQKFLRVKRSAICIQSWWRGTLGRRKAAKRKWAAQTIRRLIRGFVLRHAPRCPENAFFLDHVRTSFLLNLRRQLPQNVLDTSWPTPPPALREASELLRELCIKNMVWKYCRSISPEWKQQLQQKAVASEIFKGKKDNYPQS", "test": "stopped-flow, pyrene-actin fluorescence, K0.[…] of fast phase vs [ATP]", "format": "binding"}, "[5]": {"target": "human β-actin, filamentous (human) (UniProt P60709)"}, "[6]": {"target": "β-actin–AcTpm1.6 cofilament (human) (UniProt P60709)"}, "[7]": {"target": "β-actin–AcTpm2.1 cofilament (human) (UniProt P60709)"}, "[8]": {"target": "β-actin–AcTpm3.1 cofilament (human) (UniProt P60709)"}, "[9]": {"target": "β-actin–AcTpm4.2 cofilament (human) (UniProt P60709)"}, "[10]": {"target": "β-actin–Tpm1.6 cofilament (human) (UniProt P60709)"}, "[11]": {"target": "β-actin–Tpm2.1 cofilament (human) (UniProt P60709)"}, "[12]": {"target": "β-actin–Tpm3.1 cofilament (human) (UniProt P60709)"}, "[13]": {"target": "β-actin–Tpm4.2 cofilament (human) (UniProt P60709)"}, "[14]": {"target": "T1, acto-Myo1C^0-ΔTH1 (no Tpm)", "format": "binding"}}, "note": "Like-named read-outs stand apart in the source and are kept apart here.", "data": [{"molecule": "human Myo1C^0-ΔTH1, tail truncated myosin-1C isoform C^0, co-produced with calmodulin (from UniProt P0DP23 1-149) (complex)", "values": [{"measurement": "Kd", "setting": "[1]", "result": 13.7, "unit": "nM"}, {"measurement": "kon", "setting": "[1]", "result": "1.46e+06", "unit": "M⁻¹ s⁻¹"}, {"measurement": "Kd", "setting": "[2]", "result": 19.6, "unit": "nM"}, {"measurement": "kon", "setting": "[2]", "result": "1.33e+06", "unit": "M⁻¹ s⁻¹"}, {"measurement": "Kd", "setting": "[3]", "result": 18.4, "unit": "nM"}, {"measurement": "kon", "setting": "[3]", "result": "1.36e+06", "unit": "M⁻¹ s⁻¹"}]}, {"molecule": "Nc1ncnc2c1ncn2[C@@H]1O[C@H](COP(=O)(O)OP(=O)(O)OP(=O)(O)O)[C@@H](O)[C@H]1O", "note": "[ATP]", "values": [{"measurement": "Kd", "setting": "[4]", "result": "154000 ± 31000", "unit": "nM"}]}, {"molecule": "human tropomyosin Tpm1.8, non-acetylated (natural protein)", "values": [{"measurement": "Tdiss", "setting": "[5]", "result": 41.6, "unit": "°C"}]}, {"molecule": "human non-muscle myosin-2A heavy meromyosin (NM-2A-HMM) with essential and regulatory light chains, phosphorylated (from UniProt P35579-1;P60660-1;O14950) (complex)", "values": [{"measurement": "Kapp of the actin-activated steady-state ATPase (Michaelis–Menten fit, 30 °C)", "setting": "[6]", "result": 17.7, "unit": "µM"}, {"measurement": "kcat/Kapp of the actin-activated steady-state ATPase (30 °C)", "setting": "[6]", "result": 17400, "unit": "M⁻¹ s⁻¹"}, {"measurement": "Kapp of the actin-activated steady-state ATPase (Michaelis–Menten fit, 30 °C)", "setting": "[7]", "result": 40.9, "unit": "µM"}, {"measurement": "Kapp of the actin-activated steady-state ATPase (Michaelis–Menten fit, 30 °C)", "setting": "[8]", "result": 26.6, "unit": "µM"}, {"measurement": "Kapp of the actin-activated steady-state ATPase (Michaelis–Menten fit, 30 °C)", "setting": "[9]", "result": 26.1, "unit": "µM"}, {"measurement": "kcat/Kapp of the actin-activated steady-state ATPase (30 °C)", "setting": "[9]", "result": 23400, "unit": "M⁻¹ s⁻¹"}, {"measurement": "Kapp of the actin-activated steady-state ATPase (Michaelis–Menten fit, 30 °C)", "setting": "[10]", "result": 27.8, "unit": "µM"}, {"measurement": "kcat/Kapp of the actin-activated steady-state ATPase (30 °C)", "setting": "[10]", "result": 12400, "unit": "M⁻¹ s⁻¹"}, {"measurement": "Kapp of the actin-activated steady-state ATPase (Michaelis–Menten fit, 30 °C)", "setting": "[11]", "result": 37.8, "unit": "µM"}, {"measurement": "kcat/Kapp of the actin-activated steady-state ATPase (30 °C)", "setting": "[11]", "result": 10200, "unit": "M⁻¹ s⁻¹"}, {"measurement": "Kapp of the actin-activated steady-state ATPase (Michaelis–Menten fit, 30 °C)", "setting": "[12]", "result": 19.6, "unit": "µM"}, {"measurement": "kcat/Kapp of the actin-activated steady-state ATPase (30 °C)", "setting": "[12]", "result": 29100, "unit": "M⁻¹ s⁻¹"}, {"measurement": "Kapp of the actin-activated steady-state ATPase (Michaelis–Menten fit, 30 °C)", "setting": "[13]", "result": 26.2, "unit": "µM"}, {"measurement": "kcat/Kapp of the actin-activated steady-state ATPase (30 °C)", "setting": "[13]", "result": 11200, "unit": "M⁻¹ s⁻¹"}]}, {"molecule": "Nc1ncnc2c1ncn2[C@@H]1O[C@H](COP(=O)(O)OP(=O)(O)O)[C@@H](O)[C@H]1O", "note": "[ADP]", "values": [{"measurement": "Kd", "setting": "[14]", "result": "460 ± 80", "unit": "nM"}]}]}
